Experimental findings from publication PMC3335792, “M. tuberculosis Sliding β-Clamp Does Not Interact Directly with the NAD^+ -Dependent DNA Ligase” (PLoS ONE, 2012) are described below.

Data set [1] deals with T1, Mtbβ-clamp labeled with OregonGreen488 maleimide (Mtbβ-clamp^OG) (M. tuberculosis, UniProt P9WNU1 1-402, OregonGreen488 maleimide label (residue not stated)).
T1 construct: also called Mtbβ^OG-Clamp
T1 sequence: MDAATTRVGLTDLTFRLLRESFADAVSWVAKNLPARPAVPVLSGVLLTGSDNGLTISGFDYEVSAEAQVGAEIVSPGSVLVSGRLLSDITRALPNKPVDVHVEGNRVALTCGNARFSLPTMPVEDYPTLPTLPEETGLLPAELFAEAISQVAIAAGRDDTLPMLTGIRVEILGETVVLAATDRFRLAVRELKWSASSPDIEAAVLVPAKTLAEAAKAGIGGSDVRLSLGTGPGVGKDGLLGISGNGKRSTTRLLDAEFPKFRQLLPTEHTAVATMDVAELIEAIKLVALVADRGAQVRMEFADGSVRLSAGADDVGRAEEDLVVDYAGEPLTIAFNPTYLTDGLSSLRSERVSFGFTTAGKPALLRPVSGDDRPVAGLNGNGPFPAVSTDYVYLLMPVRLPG
Put plainly: other fluorescence titration; OregonGreen488-labeled β-clamp (50 or 100 nM in the methods, 90 nM in the legend) titrated with the partner protein; 20 mM Tris-Cl pH 7.5, 8 mM MgCl2, 1 mM DTT, 0.2 mM EDTA, 50 mM NaCl, 0.5 mM ATP, 22°C; emission at 510 nm; apparent Kd. To be noted: both partners purified.

Data set [2] deals with the molecule itself. Put plainly: crystal structure; Mtbβ-Clamp, hanging drop, 9% isopropanol, 12% PEG4K, 0.1 M Na HEPES pH 7.0, 295 K; space group C222_(1); two chains in the asymmetric unit.

B1: γ-subunit of the DNA clamp loader complex of M. tuberculosis (Rv3721c) (natural protein)
chain: MALYRKYRPASFAEVVGQEHVTAPLSVALDAGRINHAYLFSGPRGCGKTSSARILARSLNCAQGPTANPCGVCESCVSLAPNAPGSIDVVELDAASHGGVDDTRELRDRAFYAPVQSRYRVFIVDEAHMVTTAGFNALLKIVEEPPEHLIFIFATTEPEKVLPTIRSRTHHYPFRLLPPRTMRALLARICEQEGVVVDDAVYPLVIRAGGGSPRDTLSVLDQLLAGAADTHVTYTRALGLLGVTDVALIDDAVDALAACDAAALFGAIESVIDGGHDPRRFATDLLERFRDLIVLQSVPDAASRGVVDAPEDALDRMREQAARIGRATLTRYAEVVQAGLGEMRGATAPRLLLEVVCARLLLPSASDAESALLQRVERIETRLDMSIPAPQAVPRPSAAA
notes: γ-subunit of the DNA clamp loader (DNA polymerase III subunit gamma/tau) of M. tuberculosis, Rv3721c; also called γ-clamp loader; Mtb-γ-subunit
As to B1, the Kd in data set [1] was found to be 23.8 nM.

B2: M. tuberculosis sliding β-clamp (Mtbβ-clamp, Rv0002) (natural protein)
chain: MDAATTRVGLTDLTFRLLRESFADAVSWVAKNLPARPAVPVLSGVLLTGSDNGLTISGFDYEVSAEAQVGAEIVSPGSVLVSGRLLSDITRALPNKPVDVHVEGNRVALTCGNARFSLPTMPVEDYPTLPTLPEETGLLPAELFAEAISQVAIAAGRDDTLPMLTGIRVEILGETVVLAATDRFRLAVRELKWSASSPDIEAAVLVPAKTLAEAAKAGIGGSDVRLSLGTGPGVGKDGLLGISGNGKRSTTRLLDAEFPKFRQLLPTEHTAVATMDVAELIEAIKLVALVADRGAQVRMEFADGSVRLSAGADDVGRAEEDLVVDYAGEPLTIAFNPTYLTDGLSSLRSERVSFGFTTAGKPALLRPVSGDDRPVAGLNGNGPFPAVSTDYVYLLMPVRLPG
notes: also called beta clamp; Native Mtbβ-Clamp
Consider B2, for which the binding result in data set [2] was “binds”.
